Reference: paper PMC10778174

Target: BG505-SOSIP trimer Env (subtype A) (HIV-1 (subtype A, BG505))
Test: SEC + other: negative-stain EM; gel-filtration and negative-stain EM of the purified BG505 SOSIP; conditions not given

With “BG505-SOSIP trimer Env (subtype A) (complex)” the stoichiometry N was 3.
